Reference: the nanobody polyreactivity screen of Harvey et al. (2022)

Assay: yeast display, Sf9 membrane polyspecificity reagent, FACS + sequencing; frameworks hold sequencing errors
Outline: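 Nanobodies came from a synthetic yeast display library in Saccharomyces cerevisiae BJ5465, induced with galactose for 36–48 hours and stained for 1 hour at 4 °C with 10% biotinylated, detergent-solubilized Sf9 membrane reagent. Cells were enriched on streptavidin microbeads and then FACS-sorted, with low and high (top ~1%) gates set on anti-HA fluorescence for expression and streptavidin fluorescence for reagent binding. Each polyreactivity label reflects the gate a clone came from. Genes were amplified by colony PCR, sequenced by MiSeq 2 × 250 and filtered by CDR length.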

Sequence | polyreactivity (PSR sort gate)
QVQLVESGGGLVQAGGSLRLSCAASGLIFYKYAMGWYRQAPGKERELVAAITSGGSTNYADSVKGRFTISRDNAKNTVYLQMNSLKPEDTAVYYCNADYHPYLVVRWWYPPVDYWGQGNQVTVSS | low polyreactivity
QVQLVESGGALVQAGGSLRLSCAASGSIFVSNAMGWYRQAPGKERELVAAISQSGGSTYYADSVKGRFTISRDNAKNTVYLQMNSLKPEDTAVYYCATPIRSGFRIYDYWGQGTQVNVSS | low polyreactivity
QVLLQESGGLVQAGCSLRMSCAASGSISTALSMGWYRQAPGKERELVATISDGASTNYADSVKGRFTISRVNAKNTVYLQMNSLKPEDSEVYYCAAQSQYRPDHRYWGQGTQVTVSS | high polyreactivity
QVQLVESGGGLVQAGGSLRLSCAASGIFVTYAMGWYRQAPGTERELVAAIRYSGDSTYYADSVKGRFTISRDNAKNTVYLQMNSLKPEETAVYYCAATKGWSRYEYWGQGTQVTVSS | low polyreactivity
QVQLVESGGGLVQAGGSLRLSCAASGFIFYRYAMGRYRQAPGKERELVAAISWYGGTTYYADSVKGRFTISRDNAKNTVYLQMNSLKPEDTAVYYCAASRLRTEYYWGQGTQVTVSS | high polyreactivity
QVQLVESGGGLVQEGGSLRLSCAASGRILYGYAMGWYRQAPGKERELVASITSSGGSKYADSVKGRFTISRDNAKNTVYLQMNSLKPEDTAVYYGATRRGPKWQWLTYGYWGQGTQVTVSS | low polyreactivity
QVQLVESGGGLVQAGGSLRLSCAASGSTFGRNAMGWYRQAPGKERELVAAISYSGGSTYYADSVKGRFTISRDNAKNTVYLQMNSLKPEDTAVYYCNTVPKPWYSWKYAYDYWGQGTQVTVSS | high polyreactivity
QVQLVDSGGGLVQAGGSLRLSCAASGSTFVPNAMGWYRQAPGKERELVASITSDGGTYYADSVKGRFTISRDNAKNTVYLQMNSLKPEDTAVYYCAADDNGVWVISYWWFDYWGQGTQVTVSS | high polyreactivity
QVQLVESGGGLVQAGGSLRLSCAASGSNFRRNAMGWYRQAPGKERELVAAINSRGGSTYYADSVKGRFTISRDNAKNTVYLQMNSLKPEDTAVFYCATARFLRYDRYDDYWGQGTQVTVSS | low polyreactivity
QVQLVESGGGLVQAGGSLRLSCAASGFTLYRNAMGWYRQAPGKERELVAAITSSGGGTYYADSVKGRFTISRDNAKNTVYLQMNSLKPEDTAVYYCAARSTSDREGNYWGQGTQVTVSS | low polyreactivity
QVQLVESGGGLVQAGGSLRLSSAASGRTYNVYAMGWSRQAPGKERELVAGITRASTNYADSVKGRFTISRDNAKNTVYLLMNSLKPEVTAVYYCAAKIFPKGDYWGQGTQVTVSS | high polyreactivity
QGQLVESGGGLVQAGGRLRLSCAASGSTFYGNAMGWYRQAPGKERELVAAITWGDASTYYADSVKGRFTISRDNAKNPVYLQMNSLKPEDTAVSYCAVDESYGSSSDMDYWGQGTQVTVSS | low polyreactivity
QVQLVESGGGLVQAGGSLRLSCAASGITLHYYAMGWYRQAPGKERELVATISRSGGSTYYADSVKGRFTISRDNAKNTVYLQMNSLKPEDTAVYYCAARSWGGYDSRGYWGQGTQVTVSS | high polyreactivity
QVQLVESGGGLVQAGGSLRLSCAASGFIFDLYAMGWSRQAPGKERELVAAITYSGGSTYYADSVKGRFTISRDNAKNTVYLQMNSLKPEDTAVYYCAAYYGGRGYWGQGTQVTVSS | low polyreactivity
QVQLQESGGGLVQADGSLRLSCAASGSIFGYYYMGWYRQAPGKDRELVATINICGITNYADSVKGRFTISRDNAKNTVYLQMNSLKPDDNAVYYCAADEYAQRDLGYWGQGTQVTVSS | low polyreactivity
QVQLVESGGGLVQSGGSLRLTCAASGFTFYDYDMGWYRQAPGKERELVATITWSVGRTYYADSVKGRFTISRDTAKNTVYLQMNSLKPEDTAVYYCAADEPDRDYGYWGQGTQVTVSS | low polyreactivity
QVQLVESGGGLVQAGGSLRLSCAASGITFYFNAIGWYRQAPGKDRELVAAIAWPGGSTYYADSVKGRFTISRDNAKHTVFLQMNSLKPEDTAVYYCNGVFRYWYADSWFGAYDYWGQGTQVTVSS | high polyreactivity
